The values that follow come from article PMC6937306.

Where “and” joins values, the source holds several entries; their conditions need not be identical. Equal entries are not always repeated.

Test [1] deals with RAGE C2 domain (human). As to the kind of experiment: SEC-MALS; Superdex 200 Increase 10/300, 25 mM Tris-Cl, 0.2 M NaCl, pH 8.0, room temperature, no detergent; C2 fractions re-chromatographed separately. (In general: Size exclusion chromatography separates by hydrodynamic size, large species first.)
For test [2], the target named is RAGE C2 domain (human). As to the kind of experiment: ESI-MS under denaturing conditions; 50% acetonitrile and 0.1% formic acid added to the protein sample.
In test [3] the target is RAGE C2 domain (human). As to the kind of experiment: AUC; sedimentation velocity, 20 C, 40,000 rpm, 25 mM Tris pH 7.5, 200 mM NaCl, absorbance 280 nm; c(s) distribution (bimodal f/f0 for C2).
For test [4], the target named is RAGE C2 domain (human). As to the kind of experiment: native MS; about 10 uM protein; 100 mM ammonium acetate for V_C1 and C2, 500 mM for V_C1_C2; nano-ESI.
Test [5] concerns the target RAGE C2_TM_CT (C2 domain, transmembrane region and cytoplasmic tail) (human). Put plainly: SEC-MALS; Superdex 200 Increase 10/300, 25 mM Tris-Cl, 0.2 M NaCl, pH 8.0, with 2x CMC DDM, room temperature; 'protein conjugate' analysis (ASTRA) of protein and detergent masses.
Test [6] shares this target. Put plainly: ESI-MS under denaturing conditions; 50% acetonitrile and 0.1% formic acid added to the protein sample.
Test [7] concerns the target RAGE C2_TM_CT Mutant 1 (four glycines in the region of the GxxxG motif mutated to alanine) (human). Put plainly: SEC-MALS; Superdex 200 Increase 10/300, 25 mM Tris-Cl, 0.2 M NaCl, pH 8.0, with 2x CMC DDM, room temperature; 'protein conjugate' analysis (ASTRA) of protein and detergent masses.
For test [8], the target named is RAGE C2_TM_CT Mutant 2 (six amino acids that cover the GxxxG motif deleted) (human). The description is as above.
Test [9] addresses RAGE V_C1 (V and C1 domains) (human). As to the kind of experiment: native MS; about 10 uM protein; 100 mM ammonium acetate for V_C1 and C2, 500 mM for V_C1_C2; nano-ESI.
The target of test [10] is RAGE V_C1_C2 (extracellular part of RAGE) (human). Put plainly: AUC; sedimentation velocity, 20 C, 40,000 rpm, 25 mM Tris pH 7.5, 200 mM NaCl, absorbance 280 nm; c(s) distribution (bimodal f/f0 for C2).
Test [11] shares this target. As to the kind of experiment: native MS; about 10 uM protein; 100 mM ammonium acetate for V_C1 and C2, 500 mM for V_C1_C2; nano-ESI.
For test [12], the target named is full-length RAGE (receptor for advanced glycation end-products) (human) (UniProt Q15109). Put plainly: AUC; sedimentation velocity, 20 C, 42,000 rpm, 25 mM Tris pH 7.5, 200 mM NaCl with DDM; absorbance 280 nm and interference; f/fo analysis with the GUSSI Membrane Protein module for FL_RAGE.
Test [13] has the same target. Put plainly: native MS; FL_RAGE about 10 uM in 600 mM ammonium acetate with 0.04% (2x CMC) Triton X-100; nano-ESI, collisional release from the micelle.

For RAGE C2 domain (domain or fragment), the stoichiometry N (in general, the number of molecules, sites or subunits per partner or assembly) with RAGE C2 domain (human) [1] is 2. In the test with RAGE C2 domain (human) [2], this substance yielded a fraction of dimeric peaks under denaturing conditions of 27% and a stoichiometry N of 2. In the test with RAGE C2 domain (human) [3], this substance gave a percent of the total signal in the dimer of more than 65% and a stoichiometry N of 2. Also, in the test with RAGE C2 domain (human) [4], the fraction of dimeric signals came out at 33% and the stoichiometry N stood at 2.
For “RAGE C2_TM_CT (C2 domain, transmembrane region and cytoplasmic tail) (domain or fragment)”, the stoichiometry N is 2 in [5]; 2 and 4 and 6 in test [6].
In the case of “RAGE C2_TM_CT Mutant 1 (four glycines in the region of the GxxxG motif mutated to alanine) (domain or fragment)”, the stoichiometry N in test [7] is 2 and 3.
“RAGE C2_TM_CT Mutant 2 (six amino acids that cover the GxxxG motif deleted) (domain or fragment)” yielded a stoichiometry N in test [8] of 2.
In test [9], “RAGE V_C1 (V and C1 domains) (domain or fragment)” came in with a fraction of dimeric signals of 12% and a stoichiometry N of 2.
For “RAGE V_C1_C2 (extracellular part of RAGE) (domain or fragment)”, in test [10], the percent of the signal in the dimer peak stood at 17% and the stoichiometry N is 2. For the same substance, in [11], the fraction of dimers turned out to be 11% and the stoichiometry N is 2.
With “full-length RAGE (receptor for advanced glycation end-products) (from UniProt Q15109 23-404)”, the stoichiometry N in test [12] was 2 and 3; in [13] it was 2 and 3 and 4.
